Experimental data reported in patent publication US20220106398A1 (IGM BIOSCIENCES, published 2022).

T1: cynomolgus monkey His6-GITR (cynomolgus monkey)
T1 construct: His6-tagged recombinant protein; also called cGITR-His; cyno GITR-His
T1 chain: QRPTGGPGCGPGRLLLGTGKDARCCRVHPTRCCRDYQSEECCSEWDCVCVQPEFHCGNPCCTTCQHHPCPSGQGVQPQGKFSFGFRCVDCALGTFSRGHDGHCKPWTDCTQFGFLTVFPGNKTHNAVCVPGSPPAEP

T2: human His6-GITR (human, UniProt Q9Y5U5 26-162)
T2 construct: His6-tagged recombinant protein; also called hGITR-His; human GITR-His
T2 sequence: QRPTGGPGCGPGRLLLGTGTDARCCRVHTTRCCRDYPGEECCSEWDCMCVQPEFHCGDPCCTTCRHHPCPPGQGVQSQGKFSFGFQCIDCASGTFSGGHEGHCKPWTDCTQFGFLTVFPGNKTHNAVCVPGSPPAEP

T3: mouse His6-GITR (mouse, UniProt O35714 20-153)
T3 construct: His6-tagged recombinant protein; also called mGITR-His; mouse GITR-His
T3 sequence: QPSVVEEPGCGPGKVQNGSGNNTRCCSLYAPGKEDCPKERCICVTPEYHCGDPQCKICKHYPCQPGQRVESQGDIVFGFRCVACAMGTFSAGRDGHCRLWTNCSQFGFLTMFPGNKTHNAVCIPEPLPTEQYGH


Legend:
Assay in all cases: ELISA, scFv periplasmic extract on coated His6-GITR
[1] = biological target: T1, cynomolgus monkey His6-GITR
Procedure: (§1) The SuperHuman-2.0 scFv Antibody Library (available from Distributed Bio, South San Francisco, Calif.) was used to perform selection with human, cynomolgus or mouse GITR proteins. Selected phage clones from overnight growth were inoculated into wells in 96 well deep well plates containing 1 mL of medium. scFv expression was induced by addition of IPTG (Teknova) to a final concentration of 1 mM. Plates were grown overnight after induction. To prepare periplasmic extracts (PPE), the plates containing the phage clones were centrifuged at 2500 rpm for 10 min, the supernatant discarded and then pellets treated with 75 μL of cold periplasmic extract buffer with appropriate concentration of protease inhibitors (Complete Mini, EDTA-free -Roche Applied Biosciences—Cat No 1836170). After shaking at room temperature for 10 min, 225 μL of cold ddH2O with added protease inhibitor (1 tablet/50 mL) was added per well and mixed by pipetting up and down. PPE extraction was completed by incubation at room temperature for an additional 1 hr. The plates were then centrifuged at 4000 rpm for 20 minutes and 200 μL of PPE supernatant was collected from each well and transferred to a new plate which was then blocked with equal volume of 4% milk (2% final) to prepare blocked PPE extracts. In the meantime, Maxisorp plates (Nunc 442404) coated with relevant antigen (human, mouse or cynomolgus monkey His6-GITR) at 50 μl/well of 1 μg/mL antigen or 2% BSA in PBS as control were prepared for ELISA analyses. Next, 50 μL of each blocked PPE extract was transferred to the pre-blocked ELISA plates coated with the relevant antigens. After incubation and washing 3× with PBS, 50 μL of anti-V5 tag antibody (tag included in the phage display constructs, Invitrogen Cat No R960-25) at 1:5000 dilution in 2% milk was added and the plates were incubated for 1 hr. […] After further washing 3× with PBST, 50 μl/well of TMB substrate was added and the plates were developed until positive controls were visible. The reaction was stopped with 50 μl/well of 2N H2SO4. Plates were read at 450 nm to determine ELISA signal from bound PPE derived scFv.

human His6-GITR = biological target: T2, human His6-GITR
Procedure: as §1

mouse His6-GITR = biological target: T3, mouse His6-GITR
Procedure: as §1

Binder | cGITR-His/BKG [1] | hGITR-His/BKG (human His6-GITR) | mGITR-His/BKG (mouse His6-GITR)
GITR-Mab-4 scFv (scFv, V domains shown, scFv in periplasmic extract, V5 tag) VH: EVQLLESGGGLVQPGGSLRLSCAASGFTFSSYDMHWVRQAPGKGLEWVSAISSSGGSIYYADSVKGRFTISRDNSKNTLYLQMNSLRAEDTAVYYCARDSVVVPKGPNRKYYYYGMDVWGQGTKVTVSS VL: not shown | 10.3 fold over background | 9.6 fold over background | 16.1 fold over background
GITR-Mab-1 scFv (scFv, V domains shown, scFv in periplasmic extract, V5 tag) VH: QVQLVQSGAEVKKPGASVKVSCKASGYTFTNYHLHWVRQAPGQGLEWMGMINPNDGSTTYAQKFQGRVTMTRDTSTSTVYMELSSLRSEDTAVYYCARSTYYYDSSGYYYYYYGMDVWGQGTTVTVSS VL: EIVMTQSPATLSVSPGERATLSCRASQSVYSNYLAWYQQKPGQAPRLLIYGASTRATGIPARFSGSGSGTEFTLTISSLQSEDFAVYYCQQYHSYPLTFGGGTKVEIK | 15.8 fold over background | 13.2 fold over background | 1.1 fold over background
GITR-Mab-28 scFv (scFv, V domains shown, scFv in periplasmic extract, V5 tag) VH: QVQLVQSGAEVKKPGASVKVSCKASGYTFPNYGITWVRQAPGQGLEWMGWMNPNSGYTGYAQNFQGRVTMTRDTSTSTVYMELSSLRSEDTAVYYCARGMPGRGFDPWGQGTLVTVSS VL: EIVMTQSPATLSVSPGERATLSCRASQSVSSNYLAWYQQKPGQAPRLLIYGASTRATGIPARFSGSGSGTEFTLTISSLQSEDFAVYYCQQYHTYPPTFGQGTKLEIK | 1 fold over background | 11.5 fold over background | 1 fold over background
GITR-Mab-31 scFv (scFv, V domains shown, scFv in periplasmic extract, V5 tag) VH: QVQLVQSGAEVKKPGSSVKVSCKASGGTFSSYAISWVRQAPGQGLEWMGGIIPISSATSIPQKFQGRVTITADESTSTAYMELSSLRSEDTAVYYCARSYDSRYYGMDVWGQGTTVTVSS VL: EIVMTQSPATLSVSPGERATLSCRASQTVGSRYLAWYQQKPGQAPRLLIYGASTRATGIPARFSGSGSGTEFTLTISSLQSEDFAVYYCQQYYSTPWTFGQGTRLEIK | 1.2 fold over background | 17.7 fold over background | 1.2 fold over background
GITR-Mab-29 scFv (scFv, V domains shown, scFv in periplasmic extract, V5 tag) VH: QVQLVQSGAEVKKPGASVKVSCKASGYTFSSDYIHWVRQAPGQGLEWMGRINPSGGSTLYARRFQGRVTMTRDTSTSTVYMELSSLRSEDTAVYYCARERGAADTWYFDLWGRGTLVTVSS VL: not shown | 1.1 fold over background | 12.4 fold over background | 1 fold over background
GITR-Mab-27 scFv (scFv, V domains shown, scFv in periplasmic extract, V5 tag) VH: QVQLVQSGAEVKKPGASVKVSCKASGYTFTSYDINWVRQAPGQGLEWIGWMNTNSGDTGYAQKFQGRVTMTRDTSTSTVYMELSSLRSEDTAVYYCARQAYSSSWYWYGWFDPWGQGTLVTVSS VL: DIQMTQSPSSLSASVGDRVTITCQASHDIDNYLNWYQQKPGKAPKLLIYAASNLQSGVPSRFSGSGSGTDFTLTISSLQPEDFATYYCQQANSFPLTFGPGTKVDIK | 1 fold over background | 24.6 fold over background | 1.3 fold over background
GITR-Mab-30 scFv (scFv, V domains shown, scFv in periplasmic extract, V5 tag) VH: QVQLVQSGAEVKKPGASVKVSCKASGGTFSSYAISWVRQAPGQGLEWMGIIDPTGGATAYAQEFQGRVTMTRDTSTSTVYMELSSLRSEDTAVYYCARVGYYYGMDVWGQGTMVTVSS VL: not shown | 1 fold over background | 18.7 fold over background | 1 fold over background
GITR-Mab-32 scFv (scFv, V domains shown, scFv in periplasmic extract, V5 tag) VH: QVQLVQSGAEVKKPGASVKVSCKASGGTFSSYAISWVRQAPGQGLEWMGWMNPNSGDTGYAQKFQGRVTMTRDTSTSTVYMELSSLRSEDTAVYYCARGPWYFDLWGRGTLVTVSS VL: DIQMTQSPSSLSASVGDRVTITCRVSQGISNSLAWYQQKPGKAPKLLIYAASSLQSGVPSRFSGSGSGTDFTLTISSLQPEDFATYYCQQSYSTVYTFGQGTKLEIK | 4.9 fold over background | 18 fold over background | 1 fold over background

Results, then the binder that gave them:

cGITR-His/BKG [1] | hGITR-His/BKG (human His6-GITR) | mGITR-His/BKG (mouse His6-GITR) | Binder
11.7 fold over background | 13.2 fold over background | 13.7 fold over background | GITR-Mab-37 scFv (scFv, V domains shown, scFv in periplasmic extract, V5 tag) VH: QVQLVQSGAEVKKPGASVKVSCKASGYTFTSYYMHWVRQAPGQGLEWMGWINPNSGGTNYAQKFQGRVTMTRDTSTSTVYMELSSLRSEDTAVYYCASPGDYCSGGSCYSDDAFDIWGQGTMVTVSS VL: not shown
1.1 fold over background | 7.7 fold over background | 1.2 fold over background | GITR-Mab-34 scFv (scFv, V domains shown, scFv in periplasmic extract, V5 tag) VH: EVQLLESGGGLVQPGGSLRLSCAASGFTFSSYWMHWVRQAPGKGLEWVSVISNSGGATYYADSVKGRFTISRDNSKNTLYLQMNSLRAEDTAVYYCAREGWGYGMDVWGQGTTVTVSS VL: DIQMTQSPSSLSASVGDRVTITCRASQDIRNYLAWYQQKPGKAPKLLIYTASTLQSGVPSRFSGSGSGTDFTLTISSLQPEDFATYYCQQTFRTPLTFGGGTKVEIK
1.3 fold over background | 17.7 fold over background | 1 fold over background | GITR-Mab-33 scFv (scFv, V domains shown, scFv in periplasmic extract, V5 tag) VH: EVQLLESGGGLVKPGGSLRLSCAASGFMFSSYSMNWVRQAPGKGLEWVSYISGNSGYTNYADSVKGRFTISRDDSKNTLYLQMNSLKTEDTAVYYCARRLHGMDVWGQGTTVTVSS VL: DIQMTQSPSSLSASVGDRVTITCRASQSISTWLAWYQQKPGKAPKLLIYDASNLETGVPSRFSGSGSGTDFTLTISSLQPEDFATYYCQQAYRFPVAFGGGTKVEIK
4 fold over background | 4.2 fold over background | 4.4 fold over background | GITR-Mab-39 scFv (scFv, V domains shown, scFv in periplasmic extract, V5 tag) VH: EVQLLESGGGLVKPGGSLRLSCAASGFTFSSYWMSWVRQAPGKGLEWVSSISWSSTYIYYADSVKGRFTISRDDSKNTLYLQMNSLKTEDTAVYYCARDGQLGHWHFDLWGRGTLVTVSS VL: DIQMTQSPSSLSASVGDRVTITCRASQSISDWLAWYQQKPGKAPKLLIYEASKLATGVPSRFSGSGSGTDFTLTISSLQPEDFATYYCQQSYTTPLTFGGGTKVEIK
1.4 fold over background | 8.8 fold over background | 0.9 fold over background | GITR-Mab-36 scFv (scFv, V domains shown, scFv in periplasmic extract, V5 tag) VH: QVQLVQSGAEVKKPGASVKVSCKASGYTFTRNYIHWVRQAPGQGLEWMGWINPKSGGTKYAQKFQGRVTMTRDTSTSTVYMELSSLRSEDTAVYYCARESGVVATEYWYFDLWGRGTLVTVSS VL: not shown
0.9 fold over background | 25.3 fold over background | 0.9 fold over background | GITR-Mab-35 scFv (scFv, V domains shown, scFv in periplasmic extract, V5 tag) VH: QVQLVQSGAEVKKPGASVKVSCKASGYTFTNYYMHWVRQAPGQGLEWMGLITPSGGRTKYAQKFQGRVTMTRDTSTSTVYMELSSLRSEDTAVYYCAREMEYSSSWYWFDPWGQGTLVTVSS VL: DIQMTQSPSSLSASVGDRVTITCQASQGISSYLNWYQQKPGKAPKLLIYAASTLQSGVPSRFSGSGSGTDFTLTISSLQPEDFATYYCQQSYSTPLTFGGGTKVEIK
15.5 fold over background | 13.9 fold over background | 23.2 fold over background | GITR-Mab-40 scFv (scFv, V domains shown, scFv in periplasmic extract, V5 tag) VH: EVQLLESGGGLVQPGGSLRLSCAASGFTFRNHWMSWVRQAPGKGLEWVSGISWNSGSIDYADSVKGRFTISRDNSKNTLYLQMNSLRAEDTAVYYCAREEYATFDYWGQGTLVTVSS VL: not shown
 | 1.4 fold over background | 4.5 fold over background | GITR-Mab-45 scFv (scFv, V domains shown, scFv in periplasmic extract, V5 tag) VH: QVQLVQSGAEVKKPGASVKVSCKASGYTFTSYGISWVRQAPGQGLEWMGWMNPNSGNTGYAQKFQGRVTMTRDTSTSTVYMELSSLRSEDTAVYYCAREVYGDLDYWGQGTLVTVSS VL: DIQMTQSPSSLSASVGDRVTITCRASQGIDNWLAWYQQKPGKAPKLLIYGASTLQSGVPSRFSGSGSGTDFTLTISSLQPEDFATYYCQQSYTARFTFGPGTKVDIK
 | 2.9 fold over background |  | GITR-Mab-38 scFv (scFv, V domains shown, scFv in periplasmic extract, V5 tag) VH: QVQLVQSGAEVKKPGASVKVSCKASGGTFRNYAINWVRQAPGQGLEWMGWMNPNSGNTGYAQKFQGRVTMTRDTSTSTVYMELSSLRSEDTAVYYCAREDVDTASQAYFDYWGQGTLVTVSS VL: DIQMTQSPSSLSASVGDRVTITCRASQGISNYLAWYQQKPGKAPKLLIYSASNLQSGVPSRFSGSGSGTDFTLTISSLQPEDFATYYCQQGYSSRYTFGQGTKLEIK
